Laboratory results as given in patent US20090214662A1 (UNIVERSITY OF MARYLAND BALTIMORE, published 2009).

How the values were obtained:
[1] = target: Lactobacillus brevis ATCC 8287 SlpA surface layer protein (Lactobacillus brevis ATCC 8287) (UniProt Q05044); assay: SPR (BIAcore 3000), SlpA immobilised on CM5 chip, fibronectin injected, 1:1 Langmuir fit
[2] = target: Lactobacillus brevis ATCC 8287 SlpA surface layer protein (Lactobacillus brevis ATCC 8287) (UniProt Q05044); assay: SPR (BIAcore 3000), immobilised SlpA preincubated with 1 mM benzamidine, fibronectin injected, steady-state evaluation
[3] = target: Lactobacillus brevis ATCC 8287 SlpA surface layer protein (Lactobacillus brevis ATCC 8287) (UniProt Q05044); assay: SPR (BIAcore 3000), Kd of laminin compared with Kd of fibronectin on immobilised SlpA
[4] = target: Lactobacillus brevis ATCC 8287 SlpA surface layer protein (Lactobacillus brevis ATCC 8287) (UniProt Q05044); assay: SPR (BIAcore 3000), SlpA immobilised on CM5 chip, collagen injected, 1:1 Langmuir fit
[5] = target: T1, Fibrinogen (human plasma) (human, UniProt P02671 20-629; P02675 31-491; P02679 27-453, limits assumed); assay: SPR (BIAcore 3000), SlpA immobilised on CM5 chip, fibrinogen injected; Table 2 value
T1 construct: mature; Bought from Calbiochem
T1 sequence (looked up) 1: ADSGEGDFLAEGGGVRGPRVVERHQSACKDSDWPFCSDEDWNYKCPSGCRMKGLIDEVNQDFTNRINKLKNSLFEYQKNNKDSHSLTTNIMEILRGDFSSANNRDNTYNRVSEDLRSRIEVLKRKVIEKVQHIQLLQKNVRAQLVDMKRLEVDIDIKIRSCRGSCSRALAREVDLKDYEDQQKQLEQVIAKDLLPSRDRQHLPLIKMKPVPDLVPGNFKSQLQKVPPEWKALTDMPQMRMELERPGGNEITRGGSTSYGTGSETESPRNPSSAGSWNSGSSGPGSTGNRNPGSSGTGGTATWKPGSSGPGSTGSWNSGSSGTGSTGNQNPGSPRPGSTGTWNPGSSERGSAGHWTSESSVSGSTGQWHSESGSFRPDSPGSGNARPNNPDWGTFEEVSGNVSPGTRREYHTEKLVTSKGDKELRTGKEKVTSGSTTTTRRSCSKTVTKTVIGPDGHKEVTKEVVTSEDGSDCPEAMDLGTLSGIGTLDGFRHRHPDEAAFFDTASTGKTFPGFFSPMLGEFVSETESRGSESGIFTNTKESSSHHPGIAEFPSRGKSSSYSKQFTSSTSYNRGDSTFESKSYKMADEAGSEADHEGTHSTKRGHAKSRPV
T1 sequence (looked up) 2: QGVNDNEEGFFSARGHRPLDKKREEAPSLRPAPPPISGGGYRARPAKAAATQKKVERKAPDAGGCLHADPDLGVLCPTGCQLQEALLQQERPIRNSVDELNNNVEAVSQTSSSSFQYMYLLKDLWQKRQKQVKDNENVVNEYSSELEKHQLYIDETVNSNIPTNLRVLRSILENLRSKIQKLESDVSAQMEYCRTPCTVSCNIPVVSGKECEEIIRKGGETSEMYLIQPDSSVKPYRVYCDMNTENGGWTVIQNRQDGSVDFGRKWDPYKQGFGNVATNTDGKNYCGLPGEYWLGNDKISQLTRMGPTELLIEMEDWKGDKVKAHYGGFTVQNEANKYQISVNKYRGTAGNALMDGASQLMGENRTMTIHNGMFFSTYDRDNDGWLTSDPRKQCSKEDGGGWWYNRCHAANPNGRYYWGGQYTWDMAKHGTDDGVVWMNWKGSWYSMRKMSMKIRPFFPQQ
T1 sequence (looked up) 3: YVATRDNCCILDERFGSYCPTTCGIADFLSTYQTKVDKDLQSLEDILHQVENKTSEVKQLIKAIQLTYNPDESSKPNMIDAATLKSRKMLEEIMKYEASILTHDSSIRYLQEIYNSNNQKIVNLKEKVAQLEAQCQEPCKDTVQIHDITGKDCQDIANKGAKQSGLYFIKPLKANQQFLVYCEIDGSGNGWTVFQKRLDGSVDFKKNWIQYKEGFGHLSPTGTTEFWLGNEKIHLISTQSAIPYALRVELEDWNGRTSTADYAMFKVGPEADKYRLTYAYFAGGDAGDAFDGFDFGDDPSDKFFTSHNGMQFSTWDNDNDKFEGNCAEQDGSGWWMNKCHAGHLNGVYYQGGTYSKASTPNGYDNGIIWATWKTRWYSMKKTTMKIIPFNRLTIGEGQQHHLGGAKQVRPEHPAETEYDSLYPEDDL
Experimental: (§1) The interaction between SlpA and extracellular matrix components was evaluated by surface plasmon resonance on a BIAcore 3000 instrument. Purified SlpA protein in 5M LiCl was dialyzed against double-distilled water overnight. Monomeric and/or oligomeric protein was separated from self-assembled material by centrifugation at 20,000×g for 20 min. SlpA protein (50 ug/ml in 10 mM Sodium Phosphate pH 7.4) was covalently coupled to CM5 carboxylated dextran chips using N-hydroxysuccinimide (NHS) chemistry. […] Kinetic analysis was carried out at 25° C. in 10 mM HEPES, 150 mM NaCl, 3 mM EDTA, 0.005% surfactant P20, pH 7.4. […] Binding was determined experimentally by comparing the number of RU's observed as a function of time to an activated and blocked flow cell containing no linked protein. […] Data were evaluated using the BIAevaluation 4.1 software. The association and dissociation data were modeled with the BIAevaluation 4.1 software (Pharmacia Biosensor AB). Following subtraction of data from the control flow cell, the binding data produced for the various protein concentrations were fitted simultaneously, assuming the 1:1 Langmuir model.
(§2) The association and dissociation rate constants were estimated from the binding data at different concentrations using the BIAevaluation software and from these values the binding constant was calculated (Table 2).

[6] = target: T2, Laminin (basement membrane of Engelbreth-Holm-Swarm mouse sarcoma) (mouse, UniProt P19137 25-3083; P02469 22-1786; P02468 34-1607); assay: SPR (BIAcore 3000), immobilised SlpA preincubated with 1 mM benzamidine, laminin injected, 1:1 Langmuir fit
T2 construct: mature; Bought from Sigma

[7] = target: T2, Laminin (basement membrane of …); assay: SPR (BIAcore 3000), SlpA immobilised on CM5 chip, laminin injected, 1:1 Langmuir fit
Experimental: as §1, §2

Molecule “Fibronectin (human plasma) (from UniProt P02751 32-2477)” has a Kd [1] of 0.0898 µM, a koff [1] of 0.00632 s⁻¹ and a Kd [2] of 30.1 µM.

“Laminin (basement membrane of Engelbreth-Holm-Swarm mouse sarcoma), P19137 25-3083; P02469 22-1786; P02468 34-1607” gave a fold higher affinity than for fibronectin [3] of 3 fold.

Work on “Collagen (human placenta Type IV) (from UniProt P02462 28-1440; P08572 26-1484)” yielded a Kd [4] of 31.8 µM and a koff [4] of 0.0011 s⁻¹.

B1: Lactobacillus brevis ATCC 8287 SlpA surface layer protein (other, UniProt Q05044 31-465, looked up)
chain: KSYATAGAYSTLKTDAATRNVEATGTNALYTKPGTVKGAKVVASKATMAKLASSKKSADYFRAYGVKTTNRGSVYYRVVTMDGKYRGYVYGGKSDTAFAGGIKSAETTTKADMPARTTGFYLTDTSKNTLWTAPKYTQYKASKVSLYGVAKDTKFTVDQAATKTREGSLYYHVTATNGSGISGWIYAGKGFSTTATGTQVLGGLSTDKSVTATNDNSVKIVYRTTDGTQVGSNTWVTSTDGTKAGSKVSDKAADQTALEAYINANKPSGYTVTNPNAADATYGNTVYATVSQAATSKVALKVSGTPVTTALTTADANDKVAANDTTANGSSVAGSTVYAAGTKLAQLTTDLTGEKGQVVTLTAIDTDLEDATFTGTTTYYSDLGKAYHYTYTYNKDSAASSNASTQFGSNVTGTLTATLVMGKSTATANGTTWFN
notes: mature; Native protein purified from the bacterium; The soluble monomeric and/or oligomeric fraction after dialysis and centrifugation was covalently coupled (NHS chemistry) to a CM5 chip, about 1700 RU; also called S-layer protein; Surface Layer Protein A
B1 was tested, and the Kd [5] was 26.1 µM, the Kd [6] was 0.066 µM and the koff [6] was 0.002 s⁻¹. It also gave a Kd [7] of 0.0267 µM and a koff [7] of 0.0013 s⁻¹.
